First the molecules themselves.
T1: mouse FcγRI (mouse, UniProt P26151)
T1 chain: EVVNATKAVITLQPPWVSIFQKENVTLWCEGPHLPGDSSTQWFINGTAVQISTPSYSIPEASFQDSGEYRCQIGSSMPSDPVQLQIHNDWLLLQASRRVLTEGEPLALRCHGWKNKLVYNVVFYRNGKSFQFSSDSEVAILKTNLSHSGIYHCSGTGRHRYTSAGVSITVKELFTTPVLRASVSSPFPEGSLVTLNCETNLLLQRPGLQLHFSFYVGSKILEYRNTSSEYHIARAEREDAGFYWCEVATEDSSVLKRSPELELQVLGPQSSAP

T2: human FcγRIIb (human, UniProt P31994)
T2 chain: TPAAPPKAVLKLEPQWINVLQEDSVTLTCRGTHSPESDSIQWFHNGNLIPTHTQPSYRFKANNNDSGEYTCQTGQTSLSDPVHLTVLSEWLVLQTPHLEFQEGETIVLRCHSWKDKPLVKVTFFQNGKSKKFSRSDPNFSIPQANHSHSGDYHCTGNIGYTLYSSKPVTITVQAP

T3: mouse FcγRIV (mouse, UniProt A0A0B4J1G0)
T3 chain: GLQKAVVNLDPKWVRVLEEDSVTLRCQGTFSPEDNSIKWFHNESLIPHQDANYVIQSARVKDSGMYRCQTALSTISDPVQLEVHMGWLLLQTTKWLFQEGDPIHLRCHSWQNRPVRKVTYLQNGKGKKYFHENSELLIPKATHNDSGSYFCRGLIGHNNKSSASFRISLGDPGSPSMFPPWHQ

T4: human FcγRIa (human, UniProt P12314)
T4 chain: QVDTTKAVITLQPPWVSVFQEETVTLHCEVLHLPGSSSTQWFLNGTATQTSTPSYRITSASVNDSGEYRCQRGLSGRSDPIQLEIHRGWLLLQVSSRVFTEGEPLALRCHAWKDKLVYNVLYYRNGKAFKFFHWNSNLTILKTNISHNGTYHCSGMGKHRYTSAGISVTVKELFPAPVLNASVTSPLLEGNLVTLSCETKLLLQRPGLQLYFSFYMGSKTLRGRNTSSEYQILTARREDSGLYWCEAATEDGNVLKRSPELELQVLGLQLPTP

T5: human IL-6 receptor (human, UniProt P08887)
T5 chain: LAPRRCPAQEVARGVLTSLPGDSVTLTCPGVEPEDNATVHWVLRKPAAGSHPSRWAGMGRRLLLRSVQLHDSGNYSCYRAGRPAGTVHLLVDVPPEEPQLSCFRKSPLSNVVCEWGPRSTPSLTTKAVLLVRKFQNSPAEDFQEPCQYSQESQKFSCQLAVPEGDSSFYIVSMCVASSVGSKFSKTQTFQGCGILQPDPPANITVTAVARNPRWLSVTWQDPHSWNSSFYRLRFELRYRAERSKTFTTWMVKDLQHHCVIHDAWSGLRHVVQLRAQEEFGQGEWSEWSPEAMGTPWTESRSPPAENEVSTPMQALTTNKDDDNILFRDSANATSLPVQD

B1: VH3/L(WT)-mIgG1-mF44 (antibody)
chain 1: QVQLQESGPGLVKPSETLSLTCAVSGHSISHDHAWSWVRQPPGEGLEWIGFISYSGITNYNPSLQGRVTISRDNSKNTLYLQMNSLRAEDTAVYYCARSLARTTAMDYWGEGTLVTVSSAKTTPPSVYPLAPGSAAQTNSMVTLGCLVKGYFPEPVTVTWNSGSLSSGVHTFPAVLQSDLYTLSSSVTVPSSTWPSETVTCNVAHPASSTKVDKKIVPRDCGCKPCICTVPEVSSVFIFPPKPKDVLTITLTPKVTCVVVDISKDDPEVQFSWFVDDVEVHTAQTQPREEQFNSTFRSVSELPIMHQDWLNGKEFKCRVNSADFPAPIEKTISKTKGRPKAPQVYTIPPPKEQMAKDKVSLTCMITDFFPEDITVEWQWNGQPAENYKNTQPIMDTDGSYFVYSKLNVQKSNWEAGNTFTCSVLHEGLHNHHTEKSLSHSPGK
chain 2: not shown
B2: VH3/L(WT)-mIgG1-mF46 (antibody)
chain 1: B1 chain 1 with S235D
chain 2: not shown
B3: VH3/L(WT)-mIgG1 (antibody)
chain 1: B1 chain 1 with D323A
chain 2: not shown
B4: BP269 (antibody)
chain 1: QVQLQESGPGLVKPSETLSLTCAVSGHSISHDHAWSWVRQPPGEGLEWIGFISYSGITNYNPSLQGRVTISRDNSKNTLYLQMNSLRAEDTAVYYCARSLARTTAMDYWGEGTLVTVSSASTKGPSVFPLAPSSKSTSGGTAALGCLVKDYFPEPVTVSWNSGALTSGVHTFPAVLQSSGLYSLSSVVTVPSSSLGTQTYICNVNHKPSNTKVDKKVEPKSCDKTHTCPPCPAPELLGDDSVFLFPPKPKDTLMISRTPEVTCVVVDVSEEDGEVKFNWYVDGVEVHNAKTKPREEQDNSTYRVVSVLTVLHQDWLNGKEYKCKVSNKALPAPIEKTISKAKGQPREPQVYTLPPSRDELTKNQVSLTCLVKGFYPSDIAVEWESNGQPENNYKTTPPVLDSDGSFFLYSKLTVDKSRWQQGNVFSCSVMHEALHNHYTQESLSLSP
chain 2: not shown
B5: BP262 (antibody)
chain 1: B4 chain 1 with D298Y
chain 2: not shown
B6: BP268 (antibody)
chain 1: B4 chain 1 with E235D
chain 2: not shown
B7: BP084 (antibody)
chain 1: B4 chain 1 with D239G, E270H, G273P, D298Y, V325M, A332K
chain 2: not shown
B8: 2B261 (antibody)
chain 1: B4 chain 1 with E235D, D239G, E270H, G273P
chain 2: not shown
B9: BP182 (antibody)
chain 1: B4 chain 1 with E235D, D239G, E270H, A332K
chain 2: not shown
B10: BP264 (antibody)
chain 1: B4 chain 1 with E235D, A332R
chain 2: not shown
B11: BP426 (antibody)
chain 1: B4 chain 1 with E235D, S269A, E271D, D298Y, A332R
chain 2: not shown
B12: BP435 (antibody)
chain 1: B4 chain 1 with E235D, E270D, K328A, A332R, I334T
chain 2: not shown
B13: BP367 (antibody)
chain 1: B4 chain 1 with E235D, E271D, D298Y
chain 2: not shown
B14: BP350 (antibody)
chain 1: B4 chain 1 with E235D, S269E, D298Y
chain 2: not shown
B15: BP151 (antibody)
chain 1: B4 chain 1 with E235D, L236Y, E270H, G273P, D298Y, K328A, A332R
chain 2: not shown
B16: BP130 (antibody)
chain 1: B4 chain 1 with E235D, D239G, E270H, G273P, D298Y, V325M, A332K
chain 2: not shown
B17: BP237 (antibody)
chain 1: B4 chain 1 with E235D, L236Y, S269Q, E270D, K328A, A332K
chain 2: not shown
B18: BP228 (antibody)
chain 1: B4 chain 1 with L236Y, S269Q, E270D, D298Y, K328D, A332R
chain 2: not shown
B19: BP239 (antibody)
chain 1: B4 chain 1 with E235D, L236Y, S269Q, E270D, K328A, A332R
chain 2: not shown
B20: BP233 (antibody)
chain 1: B4 chain 1 with L236Y, E270H, D298Y, A332K
chain 2: not shown
B21: BP249 (antibody)
chain 1: B4 chain 1 with E235D, L236Y, E270D, A332R
chain 2: not shown
B22: BP220 (antibody)
chain 1: B4 chain 1 with E235D, E270D, A332K
chain 2: not shown
B23: BP246 (antibody)
chain 1: B4 chain 1 with E235D, S269Q, E270D, K328A, A332R
chain 2: not shown
B24: BP243 (antibody)
chain 1: B4 chain 1 with E235D, L236Y, E270D, D298Y, A332R
chain 2: not shown
B25: BP464 (antibody)
chain 1: B4 chain 1 with E235D, S269A, D298Y, A332R, P398Y
chain 2: not shown
B26: BP455 (antibody)
chain 1: B4 chain 1 with E235D, S269A, D298Y, A332R, P398L
chain 2: not shown
B27: FH4-IgG1 (antibody, V domains shown)
VH: QVQLVQSGAEVKKPGSSVKVSCKASGGTFSSYAISWVRQAPGQGLEWMGGIIPIFGTANYAQKFQGRVTITADESTSTAYMELSSLRSEDTAVYYCARERDYYDSSGYYDAFDIWGQGTMVTVSS
VL: ETTVTQSPSFLSASVGDRVTITCITTTDIDDDMNWFQQEPGKAPKLLISEGNILRPGVPSRFSSSGYGTDFTLTISKLQPEDFATYYCLQSDNLPFTFGQGTKLEIKR

Among the data in US20190112393 (published 2019) are binding result and Kd values, retold here.

Numbering of substitutions follows the chain as printed.

For the first assay, the target named is T1, mouse FcγRI. The experiment in a line: SPR. For orientation: SPR reads the build-up and loss of mass on a sensor chip optically.
On to B1, for which the binding result was “no binding”.
Still for that read-out and setting: as for B2, the entry is “no binding”.
Take B3: the binding result is “no binding”.

In the next assay the target is T2, human FcγRIIb. The experiment in a line: SPR.
For the molecule B4, the Kd (usually a measure of binding affinity in units of concentration) came out at 110 nM.
B5 had a dissociation constant (Kd) of 120 nM.
Regarding B6, the dissociation constant Kd came to 92 nM.

A further assay addresses T3, mouse FcγRIV. The experiment in a line: SPR.
Regarding B1, the binding result is listed as “no binding”.
On the same count and under the same terms, as for B2, the entry is “no binding”; as for B3, “no binding”.

For the next assay, the target named is T4, human FcγRIa. The experiment in a line: SPR.
Take B7: the Kd was 7 nM.
The same measure, in the same setting: as for B8, the figure is 9 nM; as for B9, 10 nM.

A further assay has as its target T4, human FcγRIa. The experiment in a line: SPR. This is another data set of the same source.
The molecule B4 registered a Kd of 14 nM.
B10 came in with a dissociation constant (Kd) of 7.4 nM.
Same read-out and setting: as for B11, the figure is 1 nM; as for B5, 10 nM.
Same read-out and setting: as for B6, the figure is 4.5 nM; as for B12, 1 nM.

The next assay deals with T2, human FcγRIIb. The experiment in a line: SPR. The source holds these as a separate data set.
Take B13: the Kd was 100 nM.
As to B14, the dissociation constant Kd worked out at 100 nM.

The next assay addresses T2, human FcγRIIb. The experiment in a line: SPR. This is another data set of the same source.
Regarding B15, the Kd came to 40 nM.
B7: the Kd worked out at 500 nM.
In turn, B8 came in with a Kd of 1000 nM.
B16 registered an equilibrium dissociation constant (Kd) of 300 nM.

Another assay addresses T2, human FcγRIIb. The experiment in a line: SPR. This is another data set of the same source.
The molecule B17 came in with a Kd of 100 nM.
On the same count and under the same terms, as for B18, the figure is 40 nM; as for B19, 60 nM.

The target in another assay is T4, human FcγRIa. The experiment in a line: SPR. This is another data set of the same source.
In the case of B20, the Kd turned out to be 70 nM.
Still for that read-out and setting: as for B21, the figure is 7 nM; as for B22, 20 nM.
Same read-out and setting: as for B23, the figure is 8 nM.
Same read-out and setting: as for B24, the figure is 3 nM.

A further assay has as its target T2, human FcγRIIb. The experiment in a line: SPR. The source holds these as a separate data set.
In turn, B25 gave a Kd of 4 nM.
B26 came in with a dissociation constant (Kd) of 4 nM.

The target of another assay is T5, human IL-6 receptor. The experiment in a line: SPR, pH 7.4, 3 uM Ca, 37C.
Consider B27, for which the Kd is more than 34000 nM.
